The values that follow come from paper PMC6658569 (2019).

The target of this assay is human complement C3 (human). Nature of the assay: MST.
Sequence of human complement C3 (human) (chain, as listed by the source, chain 1 of 2): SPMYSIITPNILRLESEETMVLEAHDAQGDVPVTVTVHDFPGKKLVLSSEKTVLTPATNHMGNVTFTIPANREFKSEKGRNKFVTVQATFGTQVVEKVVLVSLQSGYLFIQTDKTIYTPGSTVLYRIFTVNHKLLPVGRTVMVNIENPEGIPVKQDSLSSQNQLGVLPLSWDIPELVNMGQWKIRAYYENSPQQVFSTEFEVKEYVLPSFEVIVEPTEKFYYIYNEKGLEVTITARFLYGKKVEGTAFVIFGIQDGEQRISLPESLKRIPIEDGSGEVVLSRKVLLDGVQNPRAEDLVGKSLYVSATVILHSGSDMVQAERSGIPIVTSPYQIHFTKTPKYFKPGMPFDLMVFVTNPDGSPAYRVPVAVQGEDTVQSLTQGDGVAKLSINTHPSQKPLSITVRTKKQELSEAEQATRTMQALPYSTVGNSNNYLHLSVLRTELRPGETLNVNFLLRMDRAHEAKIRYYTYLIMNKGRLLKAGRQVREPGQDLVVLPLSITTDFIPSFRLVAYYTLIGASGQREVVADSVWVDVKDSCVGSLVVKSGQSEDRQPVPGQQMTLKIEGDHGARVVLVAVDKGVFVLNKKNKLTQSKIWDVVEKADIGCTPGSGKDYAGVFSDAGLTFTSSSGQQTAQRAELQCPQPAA
Sequence of human complement C3 (human) (chain, as listed by the source, chain 2 of 2): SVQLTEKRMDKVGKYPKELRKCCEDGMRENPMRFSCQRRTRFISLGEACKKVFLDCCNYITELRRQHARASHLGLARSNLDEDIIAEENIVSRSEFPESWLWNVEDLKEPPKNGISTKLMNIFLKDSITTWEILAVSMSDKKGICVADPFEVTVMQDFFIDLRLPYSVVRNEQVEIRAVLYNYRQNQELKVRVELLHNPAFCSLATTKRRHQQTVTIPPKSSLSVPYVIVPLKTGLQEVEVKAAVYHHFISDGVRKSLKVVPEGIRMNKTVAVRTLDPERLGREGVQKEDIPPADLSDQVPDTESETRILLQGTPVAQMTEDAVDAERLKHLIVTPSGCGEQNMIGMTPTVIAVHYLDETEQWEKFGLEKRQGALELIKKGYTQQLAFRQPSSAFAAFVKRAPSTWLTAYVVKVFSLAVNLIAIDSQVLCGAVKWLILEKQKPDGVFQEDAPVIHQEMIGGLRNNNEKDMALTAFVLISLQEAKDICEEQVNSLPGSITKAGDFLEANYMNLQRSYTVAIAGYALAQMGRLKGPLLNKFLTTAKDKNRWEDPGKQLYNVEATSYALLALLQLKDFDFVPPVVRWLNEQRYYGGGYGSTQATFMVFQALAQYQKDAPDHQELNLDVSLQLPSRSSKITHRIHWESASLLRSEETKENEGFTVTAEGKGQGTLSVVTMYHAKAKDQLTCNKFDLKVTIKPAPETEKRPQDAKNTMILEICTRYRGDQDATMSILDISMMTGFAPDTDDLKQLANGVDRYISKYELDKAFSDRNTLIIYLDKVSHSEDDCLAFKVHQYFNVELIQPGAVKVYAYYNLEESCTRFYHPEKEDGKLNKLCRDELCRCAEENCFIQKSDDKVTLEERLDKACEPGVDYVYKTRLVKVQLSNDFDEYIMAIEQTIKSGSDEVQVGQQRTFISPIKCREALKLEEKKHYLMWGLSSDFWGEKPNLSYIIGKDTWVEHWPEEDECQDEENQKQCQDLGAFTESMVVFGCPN

B1: NfrA (natural protein)
chain: DNIGTSAEELGLSDYRHFVIYPRLDKALKAQKNNDEATAIREFEYIHQQVPDNIPLTLYLAEAYRHFGHDDRARLLLEDQLKRHPGDARLERSLAAIPVEVKSVTTVEELLAQQKACDAAPTLRCRSEVGQNALRLAQLPVARAQLNDATFAASPEGKTLRTDLLQRAIYLKQWSQADTLYNEARQQNTLSAAERRQWFDVLLAGQLDDRILALQSQGIFTDPQSYITYATALAYRGEKARLQHYLIENKPLFTTDAQEKSWLYLLSKYSANPVQALANYTVQFADNRQYVVGATLPVLLKEGQYDAAQKLLATLPANEMLEERYAVSVATRNKAEALRLARLLYQQEPANLTRLDQLTWQLMQNEQSREAADLLLQRYPFQGDARVSQTLMARLASLLESHPYLATPAKVAILSKPLPLAEQRQWQSQLPGIADNCPAIVRLLGDMSPSYDAAAWNRLAKCYRDTLPGVALYAWLQAEQRQPSAWQHRAVAYQAYQVEDYATALAAWQKISLHDMSNEDLLAAANTAQAAGNGAARDRWLQQAEKRGLGSNALYWWLHAQRYIPGQPELALNDLTRSINIAPSANAYVARATIYRQRHNVPAAVSDLRAALELEPNNSNTQAALGYALWDSGDIAQSREMLEPAHKGLPDDPALIRQLAYVNQRLDDMPATQHYARLVIDDIDNQALITPLTPEQNQQRFNFRRLHEEVGRRWTFSFDSSIGLRSGAMSTANNNVGGAAPGKSYRSYGQLEAEYRIGRNMLLEGDLLSVYSRVFADTGENGVMMPVKNPMSGTGLRWKPLRDQIFFIAVEQQLPLNGQNGASDTMLRASASFFNGGKYSDEWHPNGSGWFAQNLYLDAAQYIRQDIQAWTADYRVSWHQKVANGQTIEPYAHVQDNGYRDKGTQGAQLGGVGVRWNIWTGETHYDAWPHKVSLGVEYQHTFKAINQRNGERNNAFLTIGVHW
modifications: NHS ester fluorescent dye (in the MST assay only)
Consider B1, for which binding was characterised by a dissociation constant (Kd) of 1.3 µM.

B2: HtrE (natural protein)
chain: AELVEYDHTFLMGQNASNIDLSRYSEGNPAIPGVYDVSVYVNDQPIINQSITFVAIEGKKNAQACITLKNLLQFHINSPDINNEKAVLLARDETLGNCLNLTEIIPQASVRYDVNDQRLDIDVPQAWVMKNYQNYVDPSLWENGINAAMLSYNLNGYHSETPGRKNESIYAAFNGGMNLGAWRLRASGNYNWMTDSGSNYDFKNRYVQRDIASLRSQLILGESYTTGETFDSVSIRGIRLYSDSRMLPPTLASFAPIIHGVANTNAKVTITQGGYKIYETTVPPGAFVIDDLSPSGYGSDLIVTIEESDGSKRTFSQPFSSVVQMLRPGVGRWDISGGQVLKDDIQDEPNLFQASYYYGLNNYLTGYTGIQITDNNYTAGLLGLGLNTSVGAFSFDVTHSNVRIPDDKTYQGQSYRVSWNKLFEETSTSLNIAAYRYSTQNYLGLNDALTLIDEVKHPEQDLEPKSMRNYSRMKNQVTVSINQPLKFEKKDYGSFYLSGSWSDYWASGQNRSNYSIGYSNSTSWGSYSVSAQRSWNEDGDTDDSVYLSFTIPIEKLLGTEQRTSGFQSIDTQISSDFKGNNQLNVSSSGYSDNARVSYSVNTGYTMNKASKDLSYVGGYASYESPWGTLAGSISANSDNSRQVSLSTDGGFVLHSGGLTFSNDSFSDSDTLAVVQAPGAQGARINYGNSTIDRWGYGVTSALSPYHENRIALDINDLENDVELKSTSAVAVPRQGSVVFADFETVQGQSAIMNITRSDGKNIPFAADIYDEQGNVIGNVGQGGQAFVRGIEQQGNISIKWLEQSKPVSCLAHYQQSPEAEKIAQSIILNGIRCQIQ
modifications: NHS ester fluorescent dye (in the MST assay only)
In the case of B2, the equilibrium dissociation constant (Kd) (in general, the concentration at which binding is half-saturated) worked out at 5.4 µM.

B3: YhcD (natural protein)
chain: DGIEIAAVDFDRETLKSLGVDPNISHYFSRSARFLPGEYSLIVSVNGEKKGNIATRFDENGDICLDQAFLQQAGLKIPSEEKNGCYDYILSYPGTTITPLPNQEALDIIVSPQAIIPIGLDLTNAATGGTAALLNYSLMSSRAEFSNGSSDYSQAALEGGININDWMLRSHQFLTQTNGTFSNQNSSTYLQRTFTDLKTLMRAGEVNLNNSVLEGASIYGIEIAPDNALQTSGSGVQVTGIANTSQARVEIRQQGVLIHSILVPAGAFTIPDVPVRNGNSDLNVTVVETDGSSHNYIVPSTLFNQHVESFQGYRFAIGRVDDDYDESPWVISASSGWNLTRWSAMNGGVIVAENYQAASIRSSLVPLPDLTVSSQISTSQDTKDSLQGQKYRLDANYNLPFSLGLTTSLTRSDRHYRELSEAIDDDYTDPTKSTYALGLNWSNSILGGFNISGYKTYSYDGDNDSSNLNINWNKAFKHATVSVNWQHQLSASENNEDDGDLFYVNISIPFGRSNTATLYTRHDDHKTHYGTGVMGVVSDEMSYYVNAERDHDERETSLNGSISSNLHYTQVSLAAGASGSDSRTYNGTMSGGIAVHDQGVTFSPWTINDTFAIAKMDNNIAGVRITSQAGPVWTDFRGNAVIPSIQPWRTSGVEIDTASLPKNVDIGNGTKMIKQGRGAVGKVGFSAITQRRALLNITLSDGKKLPRGVAIEDSEGNYLTTSVDDGVVFLNNIKPDMVLDIKDEQQSCRIHLTFPEDAPKDVFYETATGECQ
modifications: NHS ester fluorescent dye (in the MST assay only)
B3: the Kd came out at 8.9 µM.
